We go through 167 variants from the RNAGym collection of RNA variant scans (doi:10.7554/elife.90254).

B1: LINE1-full (parent)
chain: UACGUAGGUGGUUUUCCCCUGAUAGUGCUAAGGGGGCCUGGAAGUUUGGACUGGGCAGAGCUCAACACAGCGUGGCAAAGUGGCUGUGGCUAGACUGCCUCUCUGGAUUCCUCGUCACUCAGCAGGGCAUCUCUGAGAGAAAUGCC

The data set covers variants of B1. As to the kind of experiment: self-cleavage, relative activity (ratio to wild type); higher = more cleavage; in vitro, sequencing; the parent is a self-cleaving ribozyme.
With U39C U115C, the self-cleavage came out at 1.37. On to U39C U115A, for which the self-cleavage amounted to 1.05. As for U39C G80A, the figure is 1.06; as for A42G C56U, 0.26; as for A42G G80A, 2.61.

Consider A42G C120A, for which the self-cleavage stood at 1.54. As for A42G C120U, the figure is 0.67. For the variant U39G U62C, the self-cleavage is 0.1. As for U39C A64G, the figure is 0.24. Consider U39G U96C, for which the self-cleavage came out at 0.11.

For the variant G40U A65G, the self-cleavage came to 0.04. For A42C A107U the value was 1.04; for U39G U45C, 1.82. As for U39C G60A, the figure is 0.02; as for U39C A77G, 1.93.

Regarding G41A C68U, the self-cleavage is 0.23. As for G41U G127A, the figure is 0.69; as for U39C U100C, 2.36; as for U39C U100A, 0.53. Turning to U39C U100G, the self-cleavage came out at 0.59.

As to A42G U109A, the self-cleavage turned out to be 1.43.

As for A42G U109C, the self-cleavage was 1.24.

As for A42G U109G, the self-cleavage is 0.66. For U39C U104G the value was 0.93; for U39C U104A, 0.89. Regarding U39C G137A, the self-cleavage amounted to 1.09. For A42C U73C the value was 0.75; for A42U G55U, 0.1; for A42G U134G, 1.68.

A42G U134A: the self-cleavage was determined as 0.93. On to U39C U81C, for which the self-cleavage turned out to be 1.45. In the case of U39C U81A, the self-cleavage came out at 1.44. As for A42G U52C, the self-cleavage was 1.17. For A42G U52A the value was 1.52. As for U39C C113A, the self-cleavage amounted to 0.33.

U39C C113G: the self-cleavage came to 1.71. For U39C U108A the value was 1.22; for U39C C118A, 1.33; for U39G C123A, 0.91. Take U39A U102C: the self-cleavage stood at 1.72. In the case of A42G C99A, the self-cleavage worked out at 0.94. For A42C U100C the value was 1.25. For U39C U62A, the self-cleavage was found to be 0.04. For U39A U91A, the self-cleavage stood at 0.56. As for A42G A79U, the figure is 1.57. As to A42G A79G, the self-cleavage is 1.37.

As for G41A U96C, the self-cleavage came to 0.11.

Take G40U U130C: the self-cleavage is 1.32. For U39A U85G the value was 0.28; for U39A U85C, 0.19; for U39A U85A, 0.11. For G41A A138G the value was 1.25; for U39C G106C, 0.84. With U39C G106U, the self-cleavage was determined as 0.4. With G40U U100A, the self-cleavage came out at 0.89. For G40U U100C the value was 0.46; for A42G C131A, 1.23. For A42U C66A the value was 0.03. With A42U G72U, the self-cleavage came to 0.62. For A42G U73A the value was 1.52. For U39A U52A, the self-cleavage was 1.4. For A42C A67G the value was 0.52. On to U39C U47C, for which the self-cleavage was 1.91. As for G40U U134C, the figure is 1.6.

As to A42U A94G, the self-cleavage worked out at 0.24.

A42U A94U: the self-cleavage worked out at 0.15. As for A42U A79G, the figure is 1.16; as for G41A A79G, 1; as for G41A A79U, 1.28. In the case of U39C C71U, the self-cleavage came out at 0.31.

For G41A A43G, the self-cleavage turned out to be 0.44. As for G41A A43C, the figure is 0.25. For A42G C95U the value was 0.2; for U39C C128U, 1.16.

Regarding G40A U87A, the self-cleavage is 0.06.

U39G U52A: the self-cleavage stood at 1.16. For U39C G122A, the self-cleavage turned out to be 1.25. With U39C G122U, the self-cleavage stood at 1.53.

Take U39C A79G: the self-cleavage was 1.21. Consider U39C A79C, for which the self-cleavage worked out at 2.53.

Take U39G A142G: the self-cleavage turned out to be 0.77. Regarding G40U G58A, the self-cleavage was 0.02. As for G41A U134A, the figure is 0.89; as for G41A U134G, 0.98. For G41A U134C the value was 1.15; for U39A U62A, 0.02; for U39A U62G, 0.04.

With U39A U62C, the self-cleavage was 0.05. With G40U A59C, the self-cleavage was determined as 0.82. As for G40U A59G, the figure is 0.05; as for A42G A129C, 2.1. Take A42G A129U: the self-cleavage came to 1.75. For A42G A92G the value was 0.15. Consider A42G A92U, for which the self-cleavage turned out to be 0.72. For the variant A42U A142G, the self-cleavage came out at 0.88. For U39C U91C the value was 0.33; for G40U U52A, 0.99; for A42U G89U, 0.04. For G40U U108C the value was 1.59; for U39A U73A, 1.76. For U39A U73C the value was 1.38; for A42U A124U, 1.09. Take U39A U47C: the self-cleavage was found to be 1.55. As for A42G C145U, the figure is 1.26.

A42C A142G: the self-cleavage worked out at 1.23.

As to U39A U134A, the self-cleavage was found to be 0.9. Turning to A42U U73G, the self-cleavage was 0.95. As for A42U U73C, the figure is 1.56.

For G41A A78U, the self-cleavage turned out to be 2.63. As for G41A A78G, the self-cleavage came to 0.58.

G40A U132C: the self-cleavage was determined as 1.03. For U39C A57G the value was 0.44; for A42G A64U, 0.52; for A42U A57U, 0.04. On to A42U A57G, for which the self-cleavage stood at 0.63. Consider G40U U132A, for which the self-cleavage was determined as 1.31. As to G40U U132C, the self-cleavage worked out at 2.4. Regarding A42G A117U, the self-cleavage is 1.33.

Regarding A42U U81C, the self-cleavage worked out at 1.28. In the case of U39G A79G, the self-cleavage is 1.28. Turning to U39C A117C, the self-cleavage is 1.84. In the case of U39C A138G, the self-cleavage was 1.29.

Take U39C A138U: the self-cleavage worked out at 1.29.

A42G U132A: the self-cleavage stood at 1.8. As for A42G U132C, the figure is 1.48. Turning to G40A A138G, the self-cleavage turned out to be 1.49. For G40A A117U the value was 1.43; for U39C A67G, 0.35; for U39C A67U, 0.16. For A42G U46C the value was 1.49; for U39G U81A, 1.62; for G40U A79G, 1.09. Consider A42G U115A, for which the self-cleavage was determined as 1.24. Regarding A42G U96A, the self-cleavage was 0.03. For G41U A65G, the self-cleavage turned out to be 0.03. As for A42G C146G, the self-cleavage was 0.45.

As to A42G C146U, the self-cleavage amounted to 1.18.

For U39A U109C, the self-cleavage is 1.1. For U39A U109A the value was 1.45; for A42C C145U, 1.53; for A42G G127A, 1.04. As for U39C G144A, the figure is 0.85; as for A42G C133A, 1.59; as for G41A U87C, 0.26. As for U39C G83A, the figure is 0.2; as for U39C A124G, 0.53. With U39C U85C, the self-cleavage came to 0.18.

As for U39C U85A, the self-cleavage was determined as 0.05. Take G41C A59G: the self-cleavage came to 0.19. For U39C A136U the value was 1.25; for U39C A136G, 1.43. As for G40A A59U, the figure is 0.54; as for U39C U46C, 1.56; as for G40A U73A, 0.81. For the variant A42U A121C, the self-cleavage is 2.42. Regarding U39C U45C, the self-cleavage was 1.54. As for A42G A140U, the figure is 1.2; as for A42G A140C, 0.93. As for A42G A140G, the figure is 1.46; as for U39C A42G, 1.44. As for U39C C61G, the figure is 0.07; as for G41U A129G, 1.03. On to G41U A129C, for which the self-cleavage was 1.02. As for A42U C113A, the figure is 0.98; as for A42G U47A, 1.19; as for A42G G125A, 1.25. For U39C A43G the value was 1.38.
